Source: IntAct's records for PubMed 15890343

Target: otx2_mouse Otx2 (UniProt P80206)
Sequence (P80206 whole entry): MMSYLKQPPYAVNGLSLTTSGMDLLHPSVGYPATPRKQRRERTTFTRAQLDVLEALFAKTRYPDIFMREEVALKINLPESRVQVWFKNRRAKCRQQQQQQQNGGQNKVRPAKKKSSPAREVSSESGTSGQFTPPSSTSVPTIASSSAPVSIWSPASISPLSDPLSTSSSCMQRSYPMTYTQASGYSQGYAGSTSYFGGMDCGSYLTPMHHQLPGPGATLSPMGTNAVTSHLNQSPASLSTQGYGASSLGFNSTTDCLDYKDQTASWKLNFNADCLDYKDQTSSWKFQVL

Diencephalon/mesencephalon homeobox protein 1 (Mus musculus), Q91ZK4 R122W, sequence (Q91ZK4 whole entry R122W): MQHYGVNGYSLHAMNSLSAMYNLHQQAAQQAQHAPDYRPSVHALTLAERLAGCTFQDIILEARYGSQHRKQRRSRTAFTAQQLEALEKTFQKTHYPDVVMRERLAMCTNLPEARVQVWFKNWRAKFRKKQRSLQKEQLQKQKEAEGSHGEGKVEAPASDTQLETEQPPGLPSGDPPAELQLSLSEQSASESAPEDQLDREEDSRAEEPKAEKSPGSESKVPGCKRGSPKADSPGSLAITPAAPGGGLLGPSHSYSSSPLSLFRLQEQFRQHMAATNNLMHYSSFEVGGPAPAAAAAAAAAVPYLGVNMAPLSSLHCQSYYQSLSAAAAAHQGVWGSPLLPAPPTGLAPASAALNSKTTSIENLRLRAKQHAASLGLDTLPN

## Diencephalon/mesencephalon homeobox protein 1 (Mus musculus), Q91ZK4 R122W
  effect of a mutation on the interaction: disrupting interaction
